{"source": "the nanobody polyreactivity screen of Harvey et al. (2022)", "data": [{"experiment": "yeast display, Sf9 membrane polyspecificity reagent, FACS + sequencing; frameworks hold sequencing errors", "method_in_brief": "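Genes from sorted yeast were amplified by colony PCR, read by MiSeq 2 × 250 sequencing and filtered on CDR length. These cells carried a synthetic nanobody library in Saccharomyces cerevisiae BJ5465 and were sorted by FACS into low and high (top ~1%) gates on anti-HA and streptavidin fluorescence. Polyreactivity is labelled according to the gate of origin.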", "values": [{"sequence": "QVQLVESGGGLVQAGGSLRLSCAASGLTFPANVMGWYRQAPGKERELVAAISRSGGTTYYADSVKGRFTISRDNAKNTVYLQMNILKPEDTAVYYCAAYQVSYFGGSMDYWGQGTQVTVSS", "polyreactivity (PSR sort gate)": "high polyreactivity"}, {"sequence": "QVQLVESGGGLVQAGGSLRLSCAASGLTFPGYAMGWYRQAPGKERELVAGISKRGGSTYYADSVKGRFTISRDNAKNTVYLQMNSLKPEDTAVYYCAAVYRSQSQPYDYWGQGTQVTVSS", "polyreactivity (PSR sort gate)": "high polyreactivity"}, {"sequence": "QVQLVESGGGLVQAGGSLRLSCAASGLTFPPNAMGWYRQATGKEREFVAVISSGGGSTYYADSVKVRFTISRDNAKNTVYLQMNSLNPEDTAVYYCATEYQDGETEYYYWGQGTQVTVSS", "polyreactivity (PSR sort gate)": "low polyreactivity"}, {"sequence": "QVQLVESGGGLVQAGGSLRLSCAASGLTFPRYAMGGYRQAPGKERELVAAISYRGGRTYYADSVKGRFTISRDNAKNTVYLQMNSLKPEDTAVYYCNADSIYSARGWLYGYWGQGTQVTVSS", "polyreactivity (PSR sort gate)": "low polyreactivity"}, {"sequence": "QVQLVESGGGLVQAGGSLRLSCAASGLTFPTYAMRWYRQAPGKERELVAAISRIGGRTYYADSVKGRFSISRDNAKNTVYLQMNSLKPEDTAVYYCAADGIKGGVEYDYWGQGTQVTVSS", "polyreactivity (PSR sort gate)": "high polyreactivity"}, {"sequence": "QVQLVESGGGLVQAGGSLRLSCAASGLTFPWYAMGWYRQAPGKERELVASINSSTGSTYYADSVKGRFTISRDNAKNTVYLQMNSLKPEYTAVYYCAAVEYGNMDWGQGTQVTVSS", "polyreactivity (PSR sort gate)": "low polyreactivity"}, {"sequence": "QVQLVESGGGLVQAGGSLRLSCAASGLTFPYYVMGWYRQAPGKERELVAAISSSGGSTYYADSVKGRFTISRDNAKNTVYLQMNSLKPEDTAVYYCNAPYVFSAGFDYWGQGTQVTVSS", "polyreactivity (PSR sort gate)": "low polyreactivity"}, {"sequence": "QVQLVESGGGLVQAGGSLRLSCAASGLTFQSYAMGWYRQAPGKERELVATISNGSSTYYADSVKGRFTISRDNAKNSVYLQMNSLKPEDTAVYYCAKDYYYSRNPLYGHDYWGQGTQVTVSS", "polyreactivity (PSR sort gate)": "low polyreactivity"}, {"sequence": "QVQLVESGGGLVQAGGSLRLSCAASGLTFQYNAMGWYRQAPGKERELVASINSGGSTDYADSVKGRFTISRDNAKNTVYLQMNRLKQEDTAVYYCATSGYWYSASYGYEYWGQGTQVTLSS", "polyreactivity (PSR sort gate)": "low polyreactivity"}, {"sequence": "QVQLVESGGGLVQAGGSLRLSCAASGLTFRRYAMGWYRQAPGKERELVAAINSRGGSTYYADSVKGRFTISRDNAKNTVYLQMNSLKPEDTAVYYCATRSFGRMDYWGQGTQVTVSS", "polyreactivity (PSR sort gate)": "high polyreactivity"}, {"sequence": "QVQLVESGGGLVQAGGSLRLSCAASGLTFRTYTMGWYRQAPGKERELVAAISSSGSTKYADSVKGRFTISRDNAKNTVYLQMICLKPEDTAVYYCAARGRIYFTQYGYWGQVTQVTVSS", "polyreactivity (PSR sort gate)": "high polyreactivity"}, {"sequence": "QVQLVESGGGLVQAGGSLRLSCAASGLTFRVNAMGWYRQAPGKERELVAVISTDGGTTYYADSVKGRFTISRDNAKNTVYLQINSLKPEDTAVYYCAAKYAQVYIWVRQIHFDYWGQGTQVTVSS", "polyreactivity (PSR sort gate)": "low polyreactivity"}, {"sequence": "QVQLVESGGGLVQAGGSLRLSCAASGLTFRVYAMGWYRQAPGKERELVAAISKRGGSTYYADSVKGRFTISRDNAKNTVYLQMNSLKPEDTAVYYCAAEPPPYEYVYWGQGTQVTVSS", "polyreactivity (PSR sort gate)": "high polyreactivity"}, {"sequence": "QVQLVESGGGLVQAGGSLRLSCAASGLTFRYNAMGWYRQAHGKERELVARISRNGGRTYYADSVKGRFTISRDNAKNTVYLQMNSLKPEDSAVYYCNVVYFVTTSPGYDYWGQGTKVTVSS", "polyreactivity (PSR sort gate)": "high polyreactivity"}, {"sequence": "QVQLVESGGGLVQAGGSLRLSCAASGLTFRYYAMGWYRQAPGKERELVAAITASVGSTYYADSVKGRFTISRDNAKNTVYLQMNSLKPEDTAVYYCAAEGTPGPGGGYYWGQGTQVTVSS", "polyreactivity (PSR sort gate)": "low polyreactivity"}, {"sequence": "QVQLVESGGGLVQAGGSLRLSCAASGLTFRYYTMGLYRQAPGKERELVASITSGGITYYADSVKGRFTISRDNAKNTVYLQMYSLKPEDTAVYYCAKGSYRTTYGALGVKYGYWGQGTQVNVSS", "polyreactivity (PSR sort gate)": "high polyreactivity"}, {"sequence": "QVQLVESGGGLVQAGGSLRLSCAASGLTFSDYAMGWYRQAPGKERELVAAITYNGGSTYYADSVKGRFTISRDNAKNTVYLQMNSLKPEDTAVYYCAADTDDVGLRDYWGQGTQVTVSS", "polyreactivity (PSR sort gate)": "low polyreactivity"}, {"sequence": "QVQLVESGGGLVQAGGSLRLSCAASGLTFSDYAMGWYRQATGKEREFVAAITRNGGSTRYADSVKGRFTISRDNAKNTVYLQMNSLKPEDTAVYYCAADWSYEYGYWGQGTQVTVSS", "polyreactivity (PSR sort gate)": "low polyreactivity"}, {"sequence": "QVQLVESGGGLVQAGGSLRLSCAASGLTFSFYAMGWYIPAPGKDTERVAAISSGGGITYYADSVKGRFTISRDNAKNTVYLQMNSLKPEDTALYYCNTDDYYQYWVPSEYYYCGQGTQVTVSS", "polyreactivity (PSR sort gate)": "low polyreactivity"}, {"sequence": "QVQLVESGGGLVQAGGSLRLSCAASGLTFSIYAMGWYRPAPGKERELVAGISQSGGSTYADSVKGRFTISRDNAKNTVYLQMNSLKPEDTAVYYCAKEFEWVGSPSTVDGLEYWGHGTQVTVSS", "polyreactivity (PSR sort gate)": "low polyreactivity"}, {"sequence": "QVQLVESGGGLVQAGGSLRLSCAASGLTFSKYAMGWYRQAPGKERELVAAINRSDGGTYYADSVKGRFTISRDNAKNTVYLQMNSLKPEDTAVYYCNAVVLYGWYGRRYSSRLDYWGQGTQVTVSS", "polyreactivity (PSR sort gate)": "high polyreactivity"}, {"sequence": "QVQLVESGGGLVQAGGSLRLSCAASGLTFSQNAMGWYRQAPGKERELVAAITRSGSTTHYADSVKGRFTISRDNAKNTVYLQMNSLKPEDTAVYYCAAVAFQTRYYYWGQGTQVTVSS", "polyreactivity (PSR sort gate)": "high polyreactivity"}, {"sequence": "QVQLVESGGGLVQAGGSLRLSCAASGLTFSRYAMGWYRQATGKERELVAAITSNGGSTYYADSVKGRFTISRDNAKNTVYLQMNSLKPDDTAVYYCATGYPIDLGREFDYWGQGIQVTVSS", "polyreactivity (PSR sort gate)": "high polyreactivity"}, {"sequence": "QVQLVESGGGLVQAGGSLRLSCAASGLTFSRYARGWYRQAPGKERELVAAISGSGGSTYYADSVKGRFTISRDNAKNTVYLQMNSLKPEDTAVYYCNKYRATNSARDYWGQGTQVTVSS", "polyreactivity (PSR sort gate)": "high polyreactivity"}, {"sequence": "QVQLVESGGGLVQAGGSLRLSCAASGLTFSTNDMGWYRQAPGKEREFVAAISFNGGSTYYADSVKGRFTLSRDNAKNTVYLQMNSLKPEDTAVYYCAAGSDYGLYYGFDFWGQGTQVTVSS", "polyreactivity (PSR sort gate)": "high polyreactivity"}, {"sequence": "QVQLVESGGGLVQAGGSLRLSCAASGLTFSVYAMGWYRQAPGKDRELVAAISGSGGSTYYADSVKGRFTISRDNAKNTVYLQMNSLKPEDTAVYYCAADGRYFRAVFRLYDYWGQGTQVTVSS", "polyreactivity (PSR sort gate)": "low polyreactivity"}, {"sequence": "QVQLVESGGGLVQAGGSLRLSCAASGLTFSYYAMGWSRQAPGKERELVAAISRGGRTNYADSVKGRFTISRDNAKNTVYLQMNSLKPEDTAVYYCAARFVVQGHSSPYDYWGQGTQVTVSS", "polyreactivity (PSR sort gate)": "high polyreactivity"}, {"sequence": "QVQLVESGGGLVQAGGSLRLSCAASGLTFSYYAMGWYRQAPGKERELVAASSWSGGSTYYADSVKGRFTISRDNAKNTVYLQMNSLKPDDTAVYYCAKYPNRHYWYDYWGQGTQVTVSS", "polyreactivity (PSR sort gate)": "low polyreactivity"}, {"sequence": "QVQLVESGGGLVQAGGSLRLSCAASGLTFTPNAMGWYRQAPGKEREFVAAITWRGGRTYYADSVKGRFTISRDNAKNTVYLQMNSLKPEDTAVYYCAADSFKGYDYWGQGTQVTVSS", "polyreactivity (PSR sort gate)": "high polyreactivity"}, {"sequence": "QVQLVESGGGLVQAGGSLRLSCAASGLTFTTYAMGWYRQAPGKERELVAAISRRGSRTYYADSVKGRFTISRDNAKNTVYLQMNSLKPEDTAVYYCARRAGSYPYGYTGYDYWGQGTQVTVSS", "polyreactivity (PSR sort gate)": "high polyreactivity"}, {"sequence": "QVQLVESGGGLVQAGGSLRLSCAASGLTFTYNAMGWYRQAPGKERELVAAISKRGGSTYYADSVKGRFTISRDNAKNTVYLQMNSLKPEDTAVYYCNARTTTRSYPAFDYWGQGTQVTVSS", "polyreactivity (PSR sort gate)": "high polyreactivity"}, {"sequence": "QVQLVESGGGLVQAGGSLRLSCAASGLTFVAYGMGWYRQAPGKERELVATIRWRGGSTYYADSVKGRFTISRDNAKNTVYLQMNSLKPEDTAVYYCAATRARRWSSPGQYGYWGQGTQVTVSS", "polyreactivity (PSR sort gate)": "high polyreactivity"}, {"sequence": "QVQLVESGGGLVQAGGSLRLSCAASGLTFVTYAKGWYRQAPGKERELVAAISYSGGSTYYADSVKGRFTISRDNAKNTVYLQMNSLKPEDTAVYYCNARSPQPDGRPPYNYWGQGTQVTVSS", "polyreactivity (PSR sort gate)": "high polyreactivity"}, {"sequence": "QVQLVESGGGLVQAGGSLRLSCAASGLTFVVYAMGWYRQATGKERELVASITSSGGRTYYADSVKGRFTISRDNAKNTVYLQMTSLKPEDTAVYYCAAVRRRTRYGYRYDYWGQGTQVTVSS", "polyreactivity (PSR sort gate)": "high polyreactivity"}, {"sequence": "QVQLVESGGGLVQAGGSLRLSCAASGLTFVYNAMGWYRQAPGKERELVATISRGGSTYYADSVKGRFTISLDNAMNTVYLQMTSLKPEDTAVYYCNDDGYYDYDYGYWGQGTQVTVSS", "polyreactivity (PSR sort gate)": "low polyreactivity"}, {"sequence": "QVQLVESGGGLVQAGGSLRLSCAASGLTFVYYAMGWYRQAPGKERELVAAISRSGGATYYADSVKGRFTISRDNAKNTVYLQMNSLKPEDTAVYYCAADATKWIGVVTMDYWGQGTQVTVAS", "polyreactivity (PSR sort gate)": "high polyreactivity"}, {"sequence": "QVQLVESGGGLVQAGGSLRLSCAASGLTFVYYAMGWYRQAPGKERELVASISSTGRTYYADSVKGRFTISRDNAKNTVYLQMNSLKPEDTAVYFSAARSTYFKADYWGQGTQVTVSS", "polyreactivity (PSR sort gate)": "high polyreactivity"}, {"sequence": "QVQLVESGGGLVQAGGSLRLSCAASGLTFVYYAMGWYRQAPGKERELVAVISSSGGSTYYADSVKGRFTISRDNAKNTVYLQMNSLKPEDTAVYYCAAPRQVYYQTDNDYWGQGTLVTVSS", "polyreactivity (PSR sort gate)": "high polyreactivity"}, {"sequence": "QVQLVESGGGLVQAGGSLRLSCAASGLTFWHYAMGWYRQAHGKERELVAAISSGGRTYYADSVKGRFTISRDNAKNTVYLKMNSLKPEDSAVYYCAARGPQYYVYGYDYWGQGTQVTVSS", "polyreactivity (PSR sort gate)": "high polyreactivity"}, {"sequence": "QVQLVESGGGLVQAGGSLRLSCAASGLTFWNNAMGWYRQAPGKERELVARINNGDNTYYADSVKGRFTISRDNAKNTVYLQMNSLKPEDTAVYYCAAKRYSNIPWIHDISTFYYWGQGTQVTVSS", "polyreactivity (PSR sort gate)": "low polyreactivity"}, {"sequence": "QVQLVESGGGLVQAGGSLRLSCAASGLTFWYYAMGWYRQAPGKERELVAAITISGGSTYYADSVKGRFTISRDNAKNTVYLQMNRLQPEDTAVYYCAKTFSYTGRYWGYDYWGKGTQVTVSS", "polyreactivity (PSR sort gate)": "high polyreactivity"}, {"sequence": "QVQLVESGGGLVQAGGSLRLSCAASGLTFYANAMGWYRQAPGKERELVATISVGTDSTNYADSVKGRFTISRDNAKYTVYLQMNRLKPEDTAVYYCNALYEEYYAQDPYDYWGQGTQVTVSS", "polyreactivity (PSR sort gate)": "high polyreactivity"}, {"sequence": "QVQLVESGGGLVQAGGSLRLSCAASGLTFYGYGMGWYRQAPGKERELVASITSGGNTYYADSVKGRFTISRDNAKNTVYLRMNSLKPEDTAVYYCAVTAIALYYSSGYYWGQGTQVTVSS", "polyreactivity (PSR sort gate)": "low polyreactivity"}]}]}
